According to patent publication US20060257397A1:

Assays:
murine CD1a (mouse) = assay: flow cytometry on mouse thymocytes, K-S statistics
murine CD1d (mouse) = murine CD1d (mouse) (UniProt P11609); assay: flow cytometry on mouse thymocytes, K-S statistics
Chain of murine CD1d (mouse) (P11609 22-336): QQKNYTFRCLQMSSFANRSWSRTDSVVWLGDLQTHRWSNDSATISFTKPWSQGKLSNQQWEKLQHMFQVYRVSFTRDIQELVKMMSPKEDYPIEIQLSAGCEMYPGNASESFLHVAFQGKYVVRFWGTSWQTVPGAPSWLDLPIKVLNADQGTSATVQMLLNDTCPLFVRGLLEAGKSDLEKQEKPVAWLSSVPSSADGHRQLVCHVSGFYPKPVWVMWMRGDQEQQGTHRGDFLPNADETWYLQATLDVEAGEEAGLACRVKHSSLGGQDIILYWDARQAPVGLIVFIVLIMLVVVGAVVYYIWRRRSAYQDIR

D-value (murine CD1a (mouse)): 0.03 | D-value (murine CD1d (mouse)): 0.03
Substance: Positive control (mouse anti-human CD1a-FITC) (antibody)
